From doi:10.64898/2025.12.19.695442, “TRIM37 recognizes a bipartite degron to ubiquitinate centrosome substrates” (bioRxiv, 2025)
Values belong to the molecule of their own block, whether it stands above or below them.

B1: TRIM37 (enzyme, UniProt O94972 1-964, looked up)
chain: MDEQSVESIAEVFRCFICMEKLRDARLCPHCSKLCCFSCIRRWLTEQRAQCPHCRAPLQLRELVNCRWAEEVTQQLDTLQLCSLTKHEENEKDKCENHHEKLSVFCWTCKKCICHQCALWGGMHGGHTFKPLAEIYEQHVTKVNEEVAKLRRRLMELISLVQEVERNVEAVRNAKDERVREIRNAVEMMIARLDTQLKNKLITLMGQKTSLTQETELLESLLQEVEHQLRSCSKSELISKSSEILMMFQQVHRKPMASFVTTPVPPDFTSELVPSYDSATFVLENFSTLRQRADPVYSPPLQVSGLCWRLKVYPDGNGVVRGYYLSVFLELSAGLPETSKYEYRVEMVHQSCNDPTKNIIREFASDFEVGECWGYNRFFRLDLLANEGYLNPQNDTVILRFQVRSPTFFQKSRDQHWYITQLEAAQTSYIQQINNLKERLTIELSRTQKSRDLSPPDNHLSPQNDDALETRAKKSACSDMLLEGGPTTASVREAKEDEEDEEKIQNEDYHHELSDGDLDLDLVYEDEVNQLDGSSSSASSTATSNTEENDIDEETMSGENDVEYNNMELEEGELMEDAAAAGPAGSSHGYVGSSSRISRRTHLCSAATSSLLDIDPLILIHLLDLKDRSSIENLWGLQPRPPASLLQPTASYSRKDKDQRKQQAMWRVPSDLKMLKRLKTQMAEVRCMKTDVKNTLSEIKSSSAASGDMQTSLFSADQAALAACGTENSGRLQDLGMELLAKSSVANCYIRNSTNKKSNSPKPARSSVAGSLSLRRAVDPGENSRSKGDCQTLSEGSPGSSQSGSRHSSPRALIHGSIGDILPKTEDRQCKALDSDAVVVAVFSGLPAVEKRRKMVTLGANAKGGHLEGLQMTDLENNSETGELQPVLPEGASAAPEEGMSSDSDIECDTENEEQEEHTSVGGFHDSFMVMTQPPDEDTHSSFPDGEQIGPEDLSFNTDENSGR
notes: TRIM37, E3 ubiquitin ligase; 459-964; The co-immunoprecipitation methods say only 'TRIM37 (1 ug)', the same amount as the Abcam protein of the ubiquitination assay; also called purified TRIM37; source: bought: Abcam ab269066

Key:
[1] = target: Centrobin peptide motif (Homo sapiens) (UniProt Q8N137); settings: cited from earlier work
[2] = target: GFP-Cep192(IDR+ASH8); assay: pull-down; supernatant depletion: 30 nM TRIM37 with a range of GFP-Cep192(IDR+ASH8) concentrations and GFP-Trap magnetic particles, 25 mM HEPES pH 7.4, 150 mM KCl, 1 mM DTT, 1 hr at room temperature; unbound TRIM37 in the supernatant by Western blot; one phase association fit
[3] = target: T1, full-length Cep192 tagged with GFP (UniProt Q8TEP8-3 1-2537); assay: pull-down; purified GFP fusion (1 uM) incubated with TRIM37 (1 ug) 1 hr at 37°C, precipitated with GFP-Trap magnetic particles; washes 150 mM KCl, 25 mM HEPES, 1% glycerol, 0.05% NP-40, last wash 500 mM KCl; Western blot against TRIM37; settings: both partners purified
T1 construct: Cep192, full length (2537 aa by the printed range 2070-2537); MW with GFP = 307 kDa; also called GFP-Cep192; source: baculovirus-infected SF9 insect cells, purified (Ni-NTA, gel filtration)

[4] = target: the molecule itself; assay: cross-linking; XL-MS: 5 uM TRIM37(C18R) and 5 uM IDR+ASH8, 100 nM ZnCl2, 25 mM HEPES, 150 mM KCl pH 7.4, 20 min at 37°C, 1 mM DSSO 5 min; band of the complex cut from SDS-PAGE; calculated FDR <1%
[5] = target: B1; assay: pull-down; purified GFP fusion (1 uM) incubated with TRIM37 (1 ug) 1 hr at 37°C, precipitated with GFP-Trap magnetic particles; washes 150 mM KCl, 25 mM HEPES, 1% glycerol, 0.05% NP-40, last wash 500 mM KCl; Western blot against TRIM37; settings: both partners purified

Molecule: TRIM37 MATH (from UniProt O94972)
- Kd [1]: 14 µM

- Kd [2]: 0.075 µM
Molecule: TRIM37 (from UniProt O94972 1-964)

Molecule: B1
- binding result [3]: binds

B2: TRIM37(C18R) (enzyme, UniProt O94972 1-964, looked up)
chain: MDEQSVESIAEVFRCFIRMEKLRDARLCPHCSKLCCFSCIRRWLTEQRAQCPHCRAPLQLRELVNCRWAEEVTQQLDTLQLCSLTKHEENEKDKCENHHEKLSVFCWTCKKCICHQCALWGGMHGGHTFKPLAEIYEQHVTKVNEEVAKLRRRLMELISLVQEVERNVEAVRNAKDERVREIRNAVEMMIARLDTQLKNKLITLMGQKTSLTQETELLESLLQEVEHQLRSCSKSELISKSSEILMMFQQVHRKPMASFVTTPVPPDFTSELVPSYDSATFVLENFSTLRQRADPVYSPPLQVSGLCWRLKVYPDGNGVVRGYYLSVFLELSAGLPETSKYEYRVEMVHQSCNDPTKNIIREFASDFEVGECWGYNRFFRLDLLANEGYLNPQNDTVILRFQVRSPTFFQKSRDQHWYITQLEAAQTSYIQQINNLKERLTIELSRTQKSRDLSPPDNHLSPQNDDALETRAKKSACSDMLLEGGPTTASVREAKEDEEDEEKIQNEDYHHELSDGDLDLDLVYEDEVNQLDGSSSSASSTATSNTEENDIDEETMSGENDVEYNNMELEEGELMEDAAAAGPAGSSHGYVGSSSRISRRTHLCSAATSSLLDIDPLILIHLLDLKDRSSIENLWGLQPRPPASLLQPTASYSRKDKDQRKQQAMWRVPSDLKMLKRLKTQMAEVRCMKTDVKNTLSEIKSSSAASGDMQTSLFSADQAALAACGTENSGRLQDLGMELLAKSSVANCYIRNSTNKKSNSPKPARSSVAGSLSLRRAVDPGENSRSKGDCQTLSEGSPGSSQSGSRHSSPRALIHGSIGDILPKTEDRQCKALDSDAVVVAVFSGLPAVEKRRKMVTLGANAKGGHLEGLQMTDLENNSETGELQPVLPEGASAAPEEGMSSDSDIECDTENEEQEEHTSVGGFHDSFMVMTQPPDEDTHSSFPDGEQIGPEDLSFNTDENSGR
notes: TRIM37 with C18R; cross-links are reported from the N-terminus (a.a. 1-458) and the tail (a.a. 459-964); source: purified
- binding result [4]: binds

- binding result [5]: binds
B3: Cep192 C-terminus fragment (2070-2537 aa), GFP-tagged (domain or fragment, UniProt Q8TEP8-3 2070-2537, looked up)
chain: REFLQPSSKASLESTSDLGASGKHGGNVSLDVLPVKGPQGSPLLSRAARPPLDQLASEEPWTVLPEHLILVAPSPCDMAKTGRFQIVNNSVRLLRFELCWPAHCLTVTPQHGCVAPESKLQILVSPNSSLSTKQSMFPWSGLIYIHCDDGQKKIVKVQIREDLTQVELLTRLTSKPFGILSPVSEPSVSHLVKPMTKPPSTKVEIRNKSITFPTTEPGETSESCLELENHGTTDVKWHLSSLAPPYVKGVDESGDVFRATYAAFRCSPISGLLESHGIQKVSITFLPRGRGDYAQFWDVECHPLKEPHMKHTLRFQLSGQSIEAENEPENACLSTDSLIKIDHLVKPRRQAVSEASARIPEQLDVTARGVYAPEDVYRFRPTSVGESRTLKVNLRNNSFITHSLKFLSPREPFYVKHSKYSLRAQHYINMPVQFKPKSAGKFEALLVIQTDEGKSIAIRLIGEALGKN
notes: Cep192 residues 2070-2537 (ASH6, ASH7, ASH8 and the IDRs between them); also called C-terminal Cep192; Cep192 C-terminal fragment; source: purified (Ni-NTA, gel filtration)
